According to the nanobody polyreactivity screen of Harvey et al. (2022):

Assay: yeast display, Sf9 membrane polyspecificity reagent, FACS + sequencing; frameworks hold sequencing errors
Outline: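 Using colony PCR, genes from sorted yeast display clones were amplified, then sequenced on MiSeq at 2 × 250 and filtered by CDR length. The clones had been stained with 10% biotinylated, detergent-solubilized Sf9 membrane reagent for 1 hour at 4 °C and sorted by FACS into low and high (top ~1%) gates on anti-HA and streptavidin fluorescence. Polyreactivity labels come from the gate of origin.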

Sequence	polyreactivity (PSR sort gate)
QVQLVESGGGLVQAGGSLSLICAASRLTFYLYAMGWYRQAPGKERELLAAISYSGGSTYYADSVKGRFTISRDNAKNTVYLQMNSLKPEDTAVYYCNALRAGTDSRRTYGSTYGYWGQGTQVTVSS	high polyreactivity
QGQLGESGGGLVQAGGSLRLSSPASGIIFWDYAMAWSRQSPGNEREFVAAINTSGGTTTYADSVKGRFTISRDNAKNTVYLQMNSLKPEDTAVYYCAADPWGYYSYAYYYWGQGTQVTVSS	low polyreactivity
QVQLVESGGGLVQAGGSLRLSCAASGRIFKRNAMGWYRQAPGNERELVAAINWSGGSTYYADSVKGRFTISRDTAKNTVYLQMNSLKPEDTAVYYCAALRVQGDYDYWGQGTQVTVSS	high polyreactivity
QVQLVESGGGLVQAGGSLRLSCAASGITFAYYAMGWYRQAPGKERELVAAISSTGSSTYYADSVKGRFTISRDNAKNTVYLQMNSLKPEDTAVYYCNKLQQYTLSEYWGQGTQVTVSS	high polyreactivity
QVQLVESGGGLVQAGGSLRLSCAASGRIFFDYAMGWYRQAPGKERELVAVITSSGSSTYYADSVKGRFTISRDNAKNTVYLQMNSLKPEDTAVYYCNAARLYSGLWYGYDYWGQGTQVTVSS	high polyreactivity
QVQLVESGGGLVQAGGSLRLRCAASGSSFTGYAMGLYRQAPGKEREFVAAICWTGVSTYYADSVKGSFTISRDNAKNTVYLQMNSLKPEDTAVYYCAVDYVLRDRDLFYIIMEYWGQGTQVTVSS	low polyreactivity
QVQLVESGGGLVQAGGSLRLSCAASGSIFNGYVMGWYRQAPGKERELVASINRGGTTNYADSVKGRFTISRDNAKNTVYFQMNSLKPEDTAVYYCAVDDDANSLGGYYVLFDYWGQGTQVTVSS	low polyreactivity
QVQLEESVGGLVQAGRSLRLSCASSGTTFYYYALGWYRQAPGKERELVATIDSGTSTYYADSVKGRFTISRDNAKNTVYLQMNSLKPEDTAVYYCAAKTWSWSYGYNYWGQGTQVTVSS	low polyreactivity
QVQLVESGGGLVQAGGSLRLSCAASGRTFIGYAMGWYRPAPGKERELVAGISWSGGSTYYADSVKGRFTISRDNAKNPVSLQMNSLKPEDTAVYYCAARGRWSTEYGYWGQGTQVTVSS	low polyreactivity
QVQLVESGGGLVQAGGSLRLSCAASGSIFYGHAMGWYRQAPGKERELVATISWSTGSTYYADSVKGRFTISRDHAKNTVYLQMNSLKPEDTAVYYCAKEYFSKQWRGGYWGQGTQVTVSS	high polyreactivity
QVQLVESGGGLVQAGGSLRLSCAASGLTFSDYAMGWYRQAPGKERELVAAITWRGTSTYYADSVKGRFTISRDNAKNTVYLQMNSLKPEDTAVYYCAARKYTGSGTRYYYWGQGTQVTVSS	high polyreactivity
QVQLVESGGGLVQAGGSLRLSCAASGSTFGSYAMGWYRQAPGKERELVASISLSDGSTYADSVKGRFTISRDNAKNTVYLQMNSLKQEDTAVYYCNVDWFSHDSDYYSFAYDYWGQGTQVTVSS	high polyreactivity
QVQLVESGGGLVQAGGSLRLSCAASGRIFRGYAMGWYRQAPGKERELVATISAIGGSTYADSVKGRFTISRDNAKNTVYLQMNSLKPEDTAVYYCNVRKVYRYQYRFEYWGQGTQVTVSS	high polyreactivity
QVQLVESGGGLVQAGGSLRLSCAASGSIFEPYAMGWYRQAPGKERELVAAISWDVGRTYYADSVKGRFTISRDNAKNTVYLQMNSLKPEDTAVYYCAAEIAIDGYYKSWYDYWGQGTQVTVSS	high polyreactivity
QVQLVESGGGLVQAGGSHRLSCAASARIFYLYAMGWYRQAPGKERELVAAISRSGSSTYYADSVKGRFTISRDNPKNTVYLEMNSLKPEDTAVYYFADLRYRPVHQDHYDYWGQGTQVTVSS	high polyreactivity
QVQLVESGGGLVQAGGSLRLSCAASGSTFRVYAMGGDRQAPGKERELVAAITYSGGSTYYADSVKGRFTISRDNAKNTVYLQMNSLKPVDTAVYYCAADGYYGGYNYWGQGTQVTVSS	low polyreactivity
QVQLVESGGGLVQAGGSLRLSCAASGFTFSYYAMGWYRQAPGKERELVAAITSTGGSTYYADSVKGRFTISRDNAKNTVYLQMNSLKPEDTAVYYCATRGANRTGYKDDYWGQGTQVTVSS	high polyreactivity
QVQLVESGGGLVQAGRTLRLSCAASGRLFSHNAMGWYRQAPGKEREWVAAISGSGGSTYYADSVKGRFTISRDNAKNTVYLQMNSLKPEDTAVYYCAARFAVLVTRRFYYWGQGTQVTVSS	high polyreactivity
QVHLVESGGGLVQAGGSLRLSCAASGSTFAKNAMGWYRQAPGKERELVAAITRSAGSTYYADSVKGRFTISRDNAKNTVYLQMNSLKPEDTAVYYCDRRVSGTPWYGYWGQGTQVTVSS	high polyreactivity
QVQLVVSGGGLVQAGGSLRLSCAASGRIIFWYALGWYRQAPGKERELVAGITSGGSTNYADSVKGRFTISRDNAKNTVYLQMMRLKPEVTAVYYCNTVDSIPIGSGLYYYWGQGTQVTVSS	low polyreactivity
QVQLVESGGGLVQAGGSLRLSCAASGSIFFFNAMGWYRQAPGKEREFVAAITSSSGRTYYADSVKGRFTISRDNAKNTVYLQMNSLKPEDTAVYYCAAEGLDEGDYWGQGTQVTVSS	low polyreactivity
QVQLVESGGGLVQAGGSLRFSCAASGGTFQGNAMGWYRQAPGKEREFVATITRGGGSTYYADSVKGRFTISRDNAKNTVYLQMNSLKPEDTAVYYCNAKPSYYQRYNYWGQGTQVTVSS	high polyreactivity

Sequence	polyreactivity (PSR sort gate)
QVQLVESGGGLVQAGGSLRLSCAASGSTFSKNGMGWYRQAPGKERELVAAITVNGGSTSYADSVKGRFTISRDNAKNTVYLQMNSLKPEDTAVYYCARRRYSKYYYWGQGTQVTVSS	high polyreactivity
QVQLVESGGGLLQAGGSLRLSCAASGTIFKYYAMGWYRQAPGKERELVAAISRSGSNTYYADSVKGRFRISRDNAKNTVYLQMNTLKPEDTAVYYFAARARRYIYTFDSWGQGTQVTVSS	high polyreactivity
QVQLVESGGGLVQAGGSLRLSCSASGSIIGHNAMGWYRQAPGKEREIVAAITWRGSNTYYADSVKGRFTISRDNAKNTVYLQMNSLKPEDTAVYYCAAEFYYRTQWYYYWGQGTQVTVSS	high polyreactivity
QVQLVESGGGLVQAGGSLRLSCAASGRIFYFYAMGWYRQAPGKERELVAGITRSGDSTYADSVKGRFTISRDNAKNTVYLQMNSLKPEDTAVYYCAADFPWSTKSCHPDSGDSWGQGTQVTVSS	low polyreactivity
QVQLVESGGGLVQAGGSLRIICAASGFIFKYYAMGWYRQAPGKERELVAAISSGGSTKYADSVKGRFTISRDNAKNTVYLQMNSLIPEDTAVYYCNADWYWKYDYWGQGTQVTVSS	high polyreactivity
QVQLVESGGGLVQAGGSLRLSCAASGSIFSPYAMGWYRQAPGKERELVAAIRWGGGGTYADSVKGRFTISRDNAKNTVYLQMNSLKPEDTAVYYCAARRRSRRGYDYWGQGTQVTVSS	high polyreactivity
QVQLVESGGGLVQAGGSLSLSCADSGSTIYRYAMGWNRQAPGKEREFVATISRSGGGTYYADSEKGRLTISRDNAMNTVYLQMISLKPEDTSVYYCAARDVVQAGYYVKKYDYWGQGTQVTVSS	high polyreactivity
QVQLVESGGGLVQAGGSLRLSCAASGFTFVPYAMGWYRQAPGKERETNADSVKGRFTISRDNAKNTVYLQRNSLKPEDTAVYYCAADVWASRRYDYWGQGTQVTVSS	low polyreactivity
QVQLVESGGGLVQAGGSLRLSCASSGLIYHRNAMGWYRQAPGKERELVAAITKTGGGTYYADSVKGRFTISRDNAKNTVYLQMNSLKPEDTAVYYCAADTQRTFYYWGQGTQVTVSS	low polyreactivity
QVQLVESGGGLVQAGGSLRLSCAASGRTFKWYAMGWYRQAPGKERELVAGISRGAGRTYYADSVKGRFTISRDNAKNTVYLQMNSLKPEDTAVYYCAAVPSYHSTSPFYYWGQGTQVTVSS	high polyreactivity
QVQLVESGGGLVQAGGSLRLSCAASGSIFSYYAMGWYRQAPGKERELVATISNSGVSTYYADSVKGRFTISRDNAKNTVYLQMNSLKPEDTAVYYCAKEWLYYNGFFRSYYWGQGTQVTVSS	high polyreactivity
QVQLVESGGGLVQAGGSLRLSCAASGRTFWNYSMGWYRQAPGKERELVAVIRFSDGSTYYADSVKGRFTISRDNAKNTVYLQMNSLKPEDTAVYYCAADYSLYGWWFRNDYWGQGTQVTVSS	low polyreactivity
QVQLVESGGGLVPAGGSLRLSCAASGITIGRNTMGWYRQAPGKERELVAAIDSGGNTYADSVKGRFTISRDNAKNTVYLQMNSLKPEDTAVYYCAVDGGEFSSYGYWGQGTQVTVSP	low polyreactivity
QVQLVESGGGLVQAGGSLRLSCAASGSIFWRNAMGWYRQAPGKEREFVAAISARGGSTYYADSVKGRFTISRDNAKNTVYLQMNSLKPEDSAVYDCAASWGLGTYSDSTYWGGYYYWGQGTQVTVSS	low polyreactivity
QVQLVESGGGIVQAGGSLRLNSAASGITINGNAMGWYRQEPGKERQLVAAISRSSSRTYYADSVKGRFTISRDNAKNTVYLQKNSLKQEDTAVYYCAALSLNVDAPSYGYWGQGTQVTVSS	high polyreactivity
QVQLVESGGGIVQAGGSLRLSCAASGGIFDYNAMGWYRQAPGKERELVAAISGSDVSTYYADSVKGRFTISRDNAKNTVYLQMKSLKPEDTAVYYCAADAPWAYYEYDYWGQGTQVTVSS	low polyreactivity
QVQLVESGGGLVQAGGSLRLSCAASGSIFGIYAMGWYRQAPGKERELVATITYSGGTTYADSVKGRFTISRDNAKNTVYLQMNSLNPEDTAVYYCAAGGDYAYDCWGQGTQVTVSS	low polyreactivity
QVQLVESGGGLVQAGGSLRLSCAASGFTLGSNVMGWYRQAPGKERELVAGISQSGGRTFYADSVKGRFTISRDNSKNTVYLQMNSLKPEDTAVYYCAARRYAVEGSKNYYWGQGTQVTVTS	low polyreactivity
QVQLVETGGGLVQAGGSLRLSCAASGRIFGDNAMGWYRQAPGKEREFVATINGSGGSTYYADSVKGRFTISRDNAKNTVYLKMNRLKPEDTAVYYCFVQQNYGYDYWGQGTQVTVSS	low polyreactivity
QVQLVESGGGLVQAGGSLRLSCAASGSTFSIYARGWYRPAPGKERELVAAIRWSGGRTYYADSVKGRFTISRDNAKNTVYLQMNSLKPEDTAVYYCAAESTGSGYDYWGQGTQVTVSS	high polyreactivity
QVQLVDSGGGLVQAGGSLRLSCDASGSTFKWYAMGWYRQAPGKERELVAAISWTGASTYYADSVKGRFTISRDNGKNTVYLQMNSLKPEDTAVYYCAADRTYYAMLWTGRSRYDYWGQGTQVTVSS	high polyreactivity
